Two molecules from publication PMC2847151 (Neurogenetics, 2009) can be followed below.

In this assay the test system is Mediator. Briefly: Binding to Mediator upon transfection into HeLa cells. The settings on record: wild-type vs mutant.

B1: wildtype: wild-type MED25 protein (ARC92/ACID1); also as GAL4 fusion, full-length clone (1–754) (protein, UniProt Q71SY5 1-747, looked up)
chain: MVPGSEGPARAGSVVADVVFVIEGTANLGPYFEGLRKHYLLPAIEYFNGGPPAETDFGGDYGGTQYSLVVFNTVDCAPESYVQCHAPTSSAYEFVTWLDGIKFMGGGGESCSLIAEGLSTALQLFDDFKKMREQIGQTHRVCLLICNSPPYLLPAVESTTYSGCTTENLVQQIGERGIHFSIVSPRKLPALRLLFEKAAPPALLEPLQPPTDVSQDPRHMVLVRGLVLPVGGGSAPGPLQSKQPVPLPPAAPSGATLSAAPQQPLPPVPPQYQVPGNLSAAQVAAQNAVEAAKNQKAGLGPRFSPITPLQQAAPGVGPPFSQAPAPQLPPGPPGAPKPPPASQPSLVSTVAPGSGLAPTAQPGAPSMAGTVAPGGVSGPSPAQLGAPALGGQQSVSNKLLAWSGVLEWQEKPKPASVDANTKLTRSLPCQVYVNHGENLKTEQWPQKLIMQLIPQQLLTTLGPLFRNSRMVQFHFTNKDLESLKGLYRIMGNGFAGCVHFPHTAPCEVRVLMLLYSSKKKIFMGLIPYDQSGFVNGIRQVITNHKQVQQQKLEQQQRGMGGQQAPPGLGPILEDQARPSQNLLQLRPPQPQPQGTVGASGATGQPQPQGTAQPPPGAPQGPPGAASGPPPPGPILRPQNPGANPQLRSLLLNPPPPQTGVPPPQASLHHLQPPGAPALLPPPHQGLGQPQLGPPLLHPPPAQSWPAQLPPRAPLPGQMLLSGGPRGPVPQPGLQPSVMEDDILMDLI
modifications: full-length also GAL4 fusion
B1: the “binding to Mediator” value is given as “bound indistinguishably to Mediator”.

B2: mutant MED25: MED25 protein carrying the p.A335V mutation; also as GAL4 fusion, full-length clone (1–754) (protein, UniProt Q71SY5 1-747, looked up, variant A335V)
chain: MVPGSEGPARAGSVVADVVFVIEGTANLGPYFEGLRKHYLLPAIEYFNGGPPAETDFGGDYGGTQYSLVVFNTVDCAPESYVQCHAPTSSAYEFVTWLDGIKFMGGGGESCSLIAEGLSTALQLFDDFKKMREQIGQTHRVCLLICNSPPYLLPAVESTTYSGCTTENLVQQIGERGIHFSIVSPRKLPALRLLFEKAAPPALLEPLQPPTDVSQDPRHMVLVRGLVLPVGGGSAPGPLQSKQPVPLPPAAPSGATLSAAPQQPLPPVPPQYQVPGNLSAAQVAAQNAVEAAKNQKAGLGPRFSPITPLQQAAPGVGPPFSQAPAPQLPPGPPGVPKPPPASQPSLVSTVAPGSGLAPTAQPGAPSMAGTVAPGGVSGPSPAQLGAPALGGQQSVSNKLLAWSGVLEWQEKPKPASVDANTKLTRSLPCQVYVNHGENLKTEQWPQKLIMQLIPQQLLTTLGPLFRNSRMVQFHFTNKDLESLKGLYRIMGNGFAGCVHFPHTAPCEVRVLMLLYSSKKKIFMGLIPYDQSGFVNGIRQVITNHKQVQQQKLEQQQRGMGGQQAPPGLGPILEDQARPSQNLLQLRPPQPQPQGTVGASGATGQPQPQGTAQPPPGAPQGPPGAASGPPPPGPILRPQNPGANPQLRSLLLNPPPPQTGVPPPQASLHHLQPPGAPALLPPPHQGLGQPQLGPPLLHPPPAQSWPAQLPPRAPLPGQMLLSGGPRGPVPQPGLQPSVMEDDILMDLI
modifications: full-length also GAL4 fusion
For the molecule B2, the “binding to Mediator” value is given as “bound indistinguishably to Mediator”.
